Source: patent US12281340B2, “Method of producing N-acyl-amino group-containing compound” (AJINOMOTO CO., INC., priority 2018, dated 2025)

Columns and labels:
Format in all cases: biochemical
Set-up in all cases: key: +: Detected; −: Not detected
[1] = Synthesis of N-caprinoylamino acid using purified acylamino acid synthetase, UPLC-MS detection; settings: +ATP
Protocol: 2.0 mL of a reaction solution containing 50 mM Tris-HCl, 5 mM amino acid, 5 mM sodium caprate, 10 mM ATP, 10 mM MgCl2, 1 mM DTT, 50 μg of the purified enzyme, pH 8.0 was incubated at 25° C. for 24 hours. After completion of the reaction, 0.8 mL of a reaction stop solution (1% (v/v) phosphoric acid, 75% (v/v) methanol) was added, and the mixture was filtrated through a filter followed by being subjected to the UPLC-MS analysis to detect a signal of a molecular weight corresponding to an N-caprinoyl amino acid.
A UPLC-MS analysis condition is as follows.
(§1) Apparatus: ACQUITY UPLC (Waters)
• Column: ACQUITY UPLC BEH C18 1.7 2.1×100 mm Column (Waters) • Mobile phase A: 0.1% formic acid • Mobile phase B: acetonitrile Gradient
• Flow rate: 0.6 mL/min • Injection amount: 2 μL • Column temperature: 40° C. • Ionization method: ESI-negative
As a result of the UPLC-MS analysis, the signal of the molecular weight corresponding to the N-caprinoyl amino acid was confirmed in the reaction solution combining the enzyme and the amino acid shown in Table 3 below.

[2] = Synthesis of N-caprinoyl-amino acid derivative, N-caprinoyl-D-amino acid and N-caprinoyl-peptide using purified acylamino acid synthetase, UPLC-MS detection; settings: +ATP
Protocol: 0.2 mL of a reaction solution containing 50 mM Tris-HCl, 5 mM amino acid derivative or D-amino acid or peptide, 5 mM sodium caprate, 10 mM ATP, 10 mM MgCl2, 1 mM DTT, 50 μg/mL of the purified enzyme, pH 8.0 was incubated at 25° C. for 24 hours. After completion of the reaction, 0.8 mL of the reaction stop solution (1% (v/v) phosphoric acid, 75% (v/v) methanol) was added, and the mixture was filtrated through the filter followed by being subjected to the UPLC-MS analysis to detect a signal of a molecular weight corresponding to an N-caprinoyl-amino acid derivative, an N-caprinoyl-amino acid or an N-caprinoyl-peptide. A condition for the UPLC-MS analysis is as described in Example 2.
As a result of the UPLC-MS analysis, the signal of the molecular weight corresponding to the N-caprinoyl-amino acid derivative, or N-caprinoyl-amino acid, or N-caprinoyl-peptide was confirmed in the reaction solution containing the enzyme in combination with the amino acid derivative or the D-amino acid or the peptide shown in Table 4 below.

[3] = Synthesis of N-acylamino acids from various fatty acids using purified acylamino acid synthetase, UPLC-MS detection
Protocol: 0.1 mL of a reaction solution containing 50 mM Tris-HCl, 5 mM amino acid, 5 mM sodium fatty acid (3 mM of sodium palmitate or sodium stearate), 10 mM ATP, 10 mM MgCl2, 1 mM DTT, 200 μg/mL of the purified enzyme, pH 8.0 was shaken at 25° C. for 24 hours. When sodium palmitate or sodium stearate was used, methanol at a final concentration of 10% (v/v) was contained in the reaction solution. As the amino acid, L-Asp was used in AtGH3-6, OsGH3-8, AtGH3-5, AtGH3-12, L-Ile was used in AtJAR1, L-Ala was used in AtGH3-10, SsGH3, L-Glu was used in AtGH3-17, Gly was used in CfHP, L-Lys was used in PsIAAL, and L-Cys was used in PaHP. After completion of the reaction, 0.4 mL of the reaction stop solution (1% (v/v) phosphoric acid, 75% (v/v) methanol) was added, and the mixture was filtrated through the filter followed by being subjected to the UPLC-MS analysis to detect a signal of a molecular weight corresponding to the N-acylamino acid.
The condition for the UPLC-MS analysis is as follows.
as §1
Column: ACQUITY UPLC BEH C18 1.7 μm 2.1×100 mm Column (Waters), mobile phase A: 0.1% formic acid; mobile phase B: acetonitrile
• Flow rate: 0.6 mL/minute • Injection amount: 2 μL • Column temperature: 40° C. • Ionization method: ESI-negative
As a result of the UPLC-MS analysis, the signal of the molecular weight corresponding to the appropriate N-acylamino acid was confirmed in the reaction solution containing the enzyme in combination with sodium fatty acid shown in Table 7 below.

B1: AtJAR1: Jasmonic acid-amido synthetase JAR1 from Arabidopsis thaliana, His-tagged (protein, listed as Arabidopsis thaliana)
chain: MLEKVETFDMNRVIDEFDEMTRNAHQVQKQTLKEILLKNQSAIYLQNCGLNGNATDPEEAFKSMVPLVTDVELEPYIKRMVDGDTSPILTGHPVPAISLSSGTSQGRPKFIPFTDELMENTLQLFRTAFAFRNRDFPIDDNGKALQFIFSSKQYISTGGVPVGTATTNVYRNPNFKAGMKSITSPSCSPDEVIFSPDVHQALYCHLLSGILFRDQVQYVFAVFAHGLVHAFRTFEQVWEEIVTDIKDGVLSNRITVPSVRTAMSKLLTPNPELAETIRTKCMSLSNWYGLIPALFPNAKYVYGIMTGSMEPYVPKLRHYAGDLPLVSHDYGSSEGWIAANVTPRLSPEEATFAVIPNLGYFEFLPVSETGEGEEKPVGLTQVKIGEEYEVVITNYAGLYRYRLGDVVKVIGFYNNTPQLKFICRRNLILSINIDKNTERDLQLSVESAAKRLSEEKIEVIDFSSYIDVSTDPGHYAIFWEISGETNEDVLQDCCNCLDRAFIDAGYVSSRKCKTIGALELRVVAKGTFRKIQEHFLGLGSSAGQFKMPRCVKPSNAKVLQILCENVVSSYFSTAF
modifications: His-tag
notes: Jasmonic acid-amido synthetase JAR1 from Arabidopsis thaliana, His-tagged
For B1, the “signal of molecular weight corresponding to N-caprinoyl amino acid” value (“signal … to N-caprinoyl amino acid” for short) ([1]; substrates GABA and sodium caprate) was “+”, the “signal … to N-caprinoyl amino acid” value ([1]; substrates Gly and sodium caprate) was “+” and the “signal … to N-caprinoyl amino acid” value ([1]; substrates L-Ala and sodium caprate) was “+”. The “signal … to N-caprinoyl amino acid” value ([1]; substrates L-Arg and sodium caprate) was “+”, the “signal … to N-caprinoyl amino acid” value ([1]; substrates L-Asn and sodium caprate) was “+” and the “signal … to N-caprinoyl amino acid” value ([1]; substrates L-Asp and sodium caprate) was “+”. For the same molecule, the “signal … to N-caprinoyl amino acid” value ([1]; substrates L-Cys and sodium caprate) was “−”, the “signal … to N-caprinoyl amino acid” value ([1]; substrates L-Gln and sodium caprate) was “+” and the “signal … to N-caprinoyl amino acid” value ([1]; substrates L-Glu and sodium caprate) was “+”. The “signal … to N-caprinoyl amino acid” value ([1]; substrates L-His and sodium caprate) was “+”, the “signal … to N-caprinoyl amino acid” value ([1]; substrates L-Ile and sodium caprate) was “+” and the “signal … to N-caprinoyl amino acid” value ([1]; substrates L-Leu and sodium caprate) was “+”. The “signal … to N-caprinoyl amino acid” value ([1]; substrates L-Lys and sodium caprate) was “−”, the “signal … to N-caprinoyl amino acid” value ([1]; substrates L-Met and sodium caprate) was “+” and the “signal … to N-caprinoyl amino acid” value ([1]; substrates L-Phe and sodium caprate) was “+”. For the same molecule, the “signal … to N-caprinoyl amino acid” value ([1]; substrates L-Pro and sodium caprate) was “+”, the “signal … to N-caprinoyl amino acid” value ([1]; substrates L-Ser and sodium caprate) was “+” and the “signal … to N-caprinoyl amino acid” value ([1]; substrates L-Thr and sodium caprate) was “+”. The “signal … to N-caprinoyl amino acid” value ([1]; substrates L-Trp and sodium caprate) was “+”, the “signal … to N-caprinoyl amino acid” value ([1]; substrates L-Tyr and sodium caprate) was “+” and the “signal … to N-caprinoyl amino acid” value ([1]; substrates L-Val and sodium caprate) was “+”. The “signal … to N-caprinoyl amino acid” value ([1]; substrates β-Ala and sodium caprate) was “+”, the “signal of molecular weight corresponding to N-caprinoyl compound” value (“signal … to N-caprinoyl compound” below) ([2]; substrates Carnosine and sodium caprate) was “−” and the “signal … to N-caprinoyl compound” value ([2]; substrates D-Ala and sodium caprate) was “+”. The “signal … to N-caprinoyl compound” value ([2]; substrates D-Asp and sodium caprate) was “+”, the “signal … to N-caprinoyl compound” value ([2]; substrates D-Cys and sodium caprate) was “−” and the “signal … to N-caprinoyl compound” value ([2]; substrates D-Glu and sodium caprate) was “+”. For the same molecule, the “signal … to N-caprinoyl compound” value ([2]; substrates D-Ile and sodium caprate) was “+”, the “signal … to N-caprinoyl compound” value ([2]; substrates D-Lys and sodium caprate) was “−” and the “signal … to N-caprinoyl compound” value ([2]; substrates L-Asp-L-Phe and sodium caprate) was “−”. The “signal … to N-caprinoyl compound” value ([2]; substrates L-Gly-L-Gly and sodium caprate) was “+”, the “signal … to N-caprinoyl compound” value ([2]; substrates Sarcosine and sodium caprate) was “+” and the “signal … to N-caprinoyl compound” value ([2]; substrates Taurine and sodium caprate) was “+”. The “signal of molecular weight corresponding to N-acylamino acid” value (“signal … to N-acylamino acid” below) ([3]; substrates L-Ile and Capric acid) was “+”, the “signal … to N-acylamino acid” value ([3]; substrates L-Ile and Caproic acid) was “+” and the “signal … to N-acylamino acid” value ([3]; substrates L-Ile and Caprylic acid) was “+”. The “signal … to N-acylamino acid” value ([3]; substrates L-Ile and Lauric acid) was “+”, the “signal … to N-acylamino acid” value ([3]; substrates L-Ile and Linoleic acid) was “−” and the “signal … to N-acylamino acid” value ([3]; substrates L-Ile and Palmitic acid) was “−”. The “signal … to N-acylamino acid” value ([3]; substrates L-Ile and myristic acid) was “−”.
